Among the data in PMC10397247 are interaction score values, retold here.

Holding throughout (experiment): two-hybrid library CCmax;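 also: natural log of median RNA to DNA barcode read ratio; higher means stronger binding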
Experiment [1] deals with T1, 4H1513-AA.
T1 chain: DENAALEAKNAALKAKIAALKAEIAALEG
The settings on record: mean of both orientations.

Experiment [2] has as its target T2, 4H1842-AA.
T2 chain: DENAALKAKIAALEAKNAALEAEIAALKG
The settings on record: mean of both orientations.

For experiment [3], the target named is T3, 4H1351-AA.
T3 chain: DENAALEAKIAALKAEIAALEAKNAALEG
The settings on record: mean of both orientations.

In experiment [4] the target is T4, 4H1385-AA.
T4 chain: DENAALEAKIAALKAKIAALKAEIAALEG

In experiment [5] the target is T5, 4H340-AA.
T5 chain: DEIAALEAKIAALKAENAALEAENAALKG

In experiment [6] the target is T6, 4H1626-AA.
T6 chain: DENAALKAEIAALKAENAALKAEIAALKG
The settings on record: mean of both orientations.

Experiment [7] deals with T7, 4H1478-AA.
T7 chain: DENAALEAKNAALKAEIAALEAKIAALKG
The settings on record: mean of both orientations.

The target in experiment [8] is T8, 4H171-AA.
T8 chain: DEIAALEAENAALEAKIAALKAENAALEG
The settings on record: mean of both orientations.

Experiment [9] concerns the target T9, 4H1629-AA.
T9 chain: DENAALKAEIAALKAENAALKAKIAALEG
The settings on record: mean of both orientations.

Experiment [10] addresses T10, 4H3588-AA.
T10 chain: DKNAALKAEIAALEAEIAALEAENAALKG

For experiment [11], the target named is T11, 4H1388-AA.
T11 chain: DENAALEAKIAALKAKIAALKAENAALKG
The settings on record: mean of both orientations.

For experiment [12], the target named is T12, 4H1401-AA.
T12 chain: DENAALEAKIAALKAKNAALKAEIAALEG
The settings on record: mean of both orientations.

For experiment [13], the target named is T13, 4H3133-AA.
T13 chain: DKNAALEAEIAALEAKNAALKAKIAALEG
The settings on record: mean of both orientations.

The target of experiment [14] is T14, 4H1579-AA.
T14 chain: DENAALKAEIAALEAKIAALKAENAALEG
The settings on record: mean of both orientations.

In experiment [15] the target is T15, 4H3162-AA.
T15 chain: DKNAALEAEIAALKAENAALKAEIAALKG
The settings on record: mean of both orientations.

In experiment [16] the target is T16, 4H993-AA.
T16 chain: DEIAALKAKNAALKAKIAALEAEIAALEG
The settings on record: mean of both orientations.

For experiment [17], the target named is T17, 4H429-AA.
T17 chain: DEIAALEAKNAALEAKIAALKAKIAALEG
The settings on record: mean of both orientations.

In experiment [18] the target is T18, 4H2837-AA.
T18 chain: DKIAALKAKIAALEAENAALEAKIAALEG
The settings on record: mean of both orientations.

The target in experiment [19] is T19, 4H454-AA.
T19 chain: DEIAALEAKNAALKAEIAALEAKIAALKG
The settings on record: mean of both orientations.

The target of experiment [20] is T20, 4H2949-AA.
T20 chain: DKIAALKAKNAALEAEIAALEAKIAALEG
The settings on record: mean of both orientations.

In experiment [21] the target is T21, 4H605-AA.
T21 chain: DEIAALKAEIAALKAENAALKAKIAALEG
The settings on record: mean of both orientations.

For experiment [22], the target named is T22, 4H2754-AA.
T22 chain: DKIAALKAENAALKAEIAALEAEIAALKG
The settings on record: mean of both orientations.

Experiment [23] deals with T23, 4H3627-AA.
T23 chain: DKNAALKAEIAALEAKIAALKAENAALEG
The settings on record: mean of both orientations.

In experiment [24] the target is T24, 4H2466-AA.
T24 chain: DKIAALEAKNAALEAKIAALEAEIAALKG
The settings on record: mean of both orientations.

The target in experiment [25] is T25, 4H2354-AA.
T25 chain: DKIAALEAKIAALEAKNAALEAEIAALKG
The settings on record: mean of both orientations.

For experiment [26], the target named is T26, 4H2729-AA.
T26 chain: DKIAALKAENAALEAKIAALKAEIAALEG
The settings on record: mean of both orientations.

Experiment [27] deals with T27, 4H3655-AA.
T27 chain: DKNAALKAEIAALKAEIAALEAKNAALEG
The settings on record: mean of both orientations.

The target in experiment [28] is T28, 4H2393-AA.
T28 chain: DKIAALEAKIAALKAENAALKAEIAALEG
The settings on record: mean of both orientations.

Experiment [29] addresses T29, 4H234-AA.
T29 chain: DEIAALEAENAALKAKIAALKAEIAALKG
The settings on record: mean of both orientations.

Experiment [30] has as its target T30, 4H48-AA.
T30 chain: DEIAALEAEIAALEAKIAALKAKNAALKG
The settings on record: mean of both orientations.

In experiment [31] the target is T31, 4H3112-AA.
T31 chain: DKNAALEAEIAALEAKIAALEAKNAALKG
The settings on record: mean of both orientations.

Experiment [32] deals with T32, O13-AA.
T32 chain: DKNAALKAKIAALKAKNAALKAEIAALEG
The settings on record: mean of both orientations.

The target of experiment [33] is T33, O11-AA.
T33 chain: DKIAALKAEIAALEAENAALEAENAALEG
The settings on record: mean of both orientations.

Where two headings read alike, the source gives them in different places.

Consider DENAALEAKIAALEAENAALKAKIAALKG [4H1310-AA], for which the interaction score is -1.48 in [1]; 0.334 in experiment [2]; -1.27 in [3]; -1.04 in experiment [4] (mean of both orientations); -1.45 in experiment [5] (mean of both orientations); -0.373 in [6]. Also, the interaction score is -1.2 in [7]; -0.8 in [8]; -0.348 in experiment [9]; -1.22 in experiment [10] (mean of both orientations); -1.2 in experiment [11]; 1.11 in experiment [12]. Also, the figures for the interaction score in [13], in experiment [14] and in [15] were 0.253, -1.2 and -0.508, respectively.

Consider DENAALEAEIAALKAKNAALEAKIAALKG [4H1142-AA], for which the interaction score in experiment [1] was -1.67; in experiment [2], -0.709; in experiment [3], -1.31; in experiment [4] it was -1.1; in experiment [5] (mean of both orientations), -1.35; in [6] it was -0.818. Besides, the interaction score in [7] is -0.804; in experiment [8], -1.36; in experiment [9], -1.15; in experiment [10] it was -1.17; in experiment [11], -1.65; in [12] it was 0.545. Moreover, the interaction score in experiment [13] was -0.11; in experiment [14] it was -1.39; in experiment [15] it was -1.46.

Turning to DENAALEAENAALEAEIAALEAEIAALEG [4H1153-AA], the interaction score was 1.5 in [1]; 1.59 in experiment [16]; 0.137 in experiment [17]; -1.49 in experiment [18]; 0.894 in [19]; -0.947 in experiment [20]. Besides, the interaction score is -1.75 in experiment [21]; -1.51 in experiment [3]; -0.638 in experiment [22]; -0.179 in experiment [23]; -1.49 in experiment [5]; -1.53 in experiment [24]. The interaction score in experiment [25] is -1.55; in experiment [9], -1.34; in experiment [26], 0.0308; in [10] (mean of both orientations), -1.29; in experiment [27], -0.01; in experiment [28], -1.3. Also, the interaction score in experiment [11] is 0.435; in experiment [12], -0.873; in experiment [13] it was -2.15; in experiment [29] it was 0.621; in experiment [30] it was -1.38; in [15], -1.68. In [31], this molecule yielded an interaction score of -2.33.

As for DENAALEAKIAALKAKIAALKAEIAALEG [4H1385-AA], the interaction score was -1.62 in experiment [32]; -1.47 in experiment [2]; 2.06 in [4]; -1.57 in experiment [6]; 0.852 in experiment [7]; -0.131 in [8]. The interaction score in [33] is 0.214; in experiment [14], -0.0818.
